Target: CD74 (human), P04233
Test: cell-based or functional assay

Sequence of CD74 (human), P04233 (P04233 whole entry): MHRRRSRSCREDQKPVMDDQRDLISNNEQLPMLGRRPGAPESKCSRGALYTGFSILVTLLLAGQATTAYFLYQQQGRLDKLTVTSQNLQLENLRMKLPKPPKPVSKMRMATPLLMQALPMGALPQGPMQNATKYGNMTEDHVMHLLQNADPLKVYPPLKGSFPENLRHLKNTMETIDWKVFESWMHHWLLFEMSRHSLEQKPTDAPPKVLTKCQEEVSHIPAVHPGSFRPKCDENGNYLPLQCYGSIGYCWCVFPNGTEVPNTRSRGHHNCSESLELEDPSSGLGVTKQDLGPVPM

Binder | cell killing IC50, ARD (MM) cells | cell killing IC50, ARP-1 (MM) cells | cell killing IC50, BDCM (AML) cells | cell killing IC50, JVM-13 (CLL) cells | cell killing IC50, RPMI-6666 (HL) cells | cell killing IC50, SU-DHL-6 (NHL) cells | cell killing IC50, SUP-B15 (ALL) cells | cell killing Span, ARD (MM) cells | cell killing Span, ARP-1 (MM) cells | cell killing Span, BDCM (AML) cells | cell killing Span, JVM-13 (CLL) cells | cell killing Span, RPMI-6666 (HL) cells | cell killing Span, SU-DHL-6 (NHL) cells | cell killing Span, SUP-B15 (ALL) cells | cell killing IC50, RPMI-8226 (MM) cells | cell killing Span, RPMI-8226 (MM) cells | also measured
Conjugate A (anti-CD74 IgG-DBCO-PEG4-maytansine conjugate) (antibody, V domains shown, here or on the partner: para-azidomethyl-L-phenylalanine (pAMF, residue 30) at heavy chain EU position 404 (constant region, outside SEQ ID NO 236), linked to DBCO-PEG4-maytansine) VH: QVQLVESGGGVVQPGRSLRLSCAASGFNFSDYGMHWVRQAPGKGLEWVAVIWYDGSISYYADSVKGRFTISRDNSKNTLYLQMNSLRAEDTAVYYCARGGTVEHGAVYGTDVWGQGTTVTVSS VL: DIQMTQSPSSVSASVGDRVTITCRASQGIGSWLAWYQQKPGKAPKLLIYAADRLQSGVPSRFSGSGSGTDFTLTISSLQPEDFATYYCQQYHTYPLTFGGGTKVEIK | 8.6 nM | 9 nM | 4.6 nM | 1.5 nM | 1 nM | 0.6 nM | 3 nM | 40% | 77% | 76% | 65% | 85% | 98% | 65% | – | – | cell killing EC50, HH T lymphoma cells, 120 h CellTiter-Glo: 0.22 nM; cell killing EC50, HuT-78 T lymphoma cells, 120 h CellTiter-Glo: 0.59 nM; cell killing EC50, My-La T lymphoma cells, 120 h CellTiter-Glo: 0.54 nM; cell killing IC50, ARD (MM) cells, 72 h CellTiter-Glo: 8.6 nM; cell killing IC50, ARP-1 (MM) cells, 72 h CellTiter-Glo: 9 nM; cell killing IC50, BDCM (AML) cells, 72 h CellTiter-Glo: 4.6 nM; cell killing IC50, JVM-13 (CLL) cells, 72 h CellTiter-Glo: 1.5 nM; cell killing IC50, RPMI-6666 (HL) cells, 72 h CellTiter-Glo: 1 nM; cell killing IC50, SU-DHL-6 (NHL) cells, 72 h CellTiter-Glo: 0.6 nM; cell killing IC50, SUP-B15 (ALL) cells, 72 h CellTiter-Glo: 3 nM; cell killing Span, ARD (MM) cells, 72 h CellTiter-Glo: 38%; cell killing Span, ARP-1 (MM) cells, 72 h CellTiter-Glo: 74%; cell killing Span, BDCM (AML) cells, 72 h CellTiter-Glo: 74%; cell killing Span, HH T lymphoma cells, 120 h CellTiter-Glo: 77%; cell killing Span, HuT-78 T lymphoma cells, 120 h CellTiter-Glo: 72%; cell killing Span, JVM-13 (CLL) cells, 72 h CellTiter-Glo: 58%; cell killing Span, My-La T lymphoma cells, 120 h CellTiter-Glo: 73%; cell killing Span, RPMI-6666 (HL) cells, 72 h CellTiter-Glo: 84%; cell killing Span, SU-DHL-6 (NHL) cells, 72 h CellTiter-Glo: 98%; cell killing Span, SUP-B15 (ALL) cells, 72 h CellTiter-Glo: 64%
Conjugate E (anti-CD74 IgG-PEG4-MMAF conjugate) (antibody, V domains shown, here or on the partner: modified amino acid residue 30 (pAMF) according to Example 2, position not stated for this conjugate, linked to PEG4-MMAF) VH: QVQLVESGGGVVQPGRSLRLSCAASGFNFSDYGMHWVRQAPGKGLEWVAVIWYDGSISYYADSVKGRFTISRDNSKNTLYLQMNSLRAEDTAVYYCARGGTVEHGAVYGTDVWGQGTTVTVSS VL: DIQMTQSPSSVSASVGDRVTITCRASQGIGSWLAWYQQKPGKAPKLLIYAADRLQSGVPSRFSGSGSGTDFTLTISSLQPEDFATYYCQQYHTYPLTFGGGTKVEIK | 18 nM | 6 nM | 3.3 nM | 7.8 nM | 1.5 nM | 0.5 nM | 2.5 nM | 20% | 71% | 78% | 47% | 80% | 98% | 58% | – | – | –
Conjugate F (anti-CD74 IgG-PEG4-MMAE conjugate) (antibody, V domains shown, here or on the partner: modified amino acid residue 30 (pAMF) according to Example 2, position not stated for this conjugate, linked to PEG4-MMAE) VH: QVQLVESGGGVVQPGRSLRLSCAASGFNFSDYGMHWVRQAPGKGLEWVAVIWYDGSISYYADSVKGRFTISRDNSKNTLYLQMNSLRAEDTAVYYCARGGTVEHGAVYGTDVWGQGTTVTVSS VL: DIQMTQSPSSVSASVGDRVTITCRASQGIGSWLAWYQQKPGKAPKLLIYAADRLQSGVPSRFSGSGSGTDFTLTISSLQPEDFATYYCQQYHTYPLTFGGGTKVEIK | 16 nM | 4.2 nM | 1.4 nM | 5 nM | 0.7 nM | 0.3 nM | 3.7 nM | 73% | 93% | 94% | 59% | 82% | 97% | 65% | 20 nM | 31% | –
Conjugate C (anti-CD74 IgG-val-cit-PAB-hemiasterlin conjugate) (antibody, V domains shown, here or on the partner: modified amino acid residue 30 (pAMF) according to Example 2, position not stated for this conjugate, linked to val-cit-PAB-hemiasterlin) VH: QVQLVESGGGVVQPGRSLRLSCAASGFNFSDYGMHWVRQAPGKGLEWVAVIWYDGSISYYADSVKGRFTISRDNSKNTLYLQMNSLRAEDTAVYYCARGGTVEHGAVYGTDVWGQGTTVTVSS VL: DIQMTQSPSSVSASVGDRVTITCRASQGIGSWLAWYQQKPGKAPKLLIYAADRLQSGVPSRFSGSGSGTDFTLTISSLQPEDFATYYCQQYHTYPLTFGGGTKVEIK | – | – | – | 0.9 nM | 0.9 nM | 0.3 nM | – | 74% | 87% | 89% | 54% | 84% | 97% | 68% | – | 43% | –
Conjugate B (anti-CD74 IgG-PEG4-maytansine conjugate) (antibody, V domains shown, here or on the partner: modified amino acid residue 30 (pAMF) according to Example 2, position not stated for this conjugate, linked to a PEG4-maytansine linker-payload) VH: QVQLVESGGGVVQPGRSLRLSCAASGFNFSDYGMHWVRQAPGKGLEWVAVIWYDGSISYYADSVKGRFTISRDNSKNTLYLQMNSLRAEDTAVYYCARGGTVEHGAVYGTDVWGQGTTVTVSS VL: DIQMTQSPSSVSASVGDRVTITCRASQGIGSWLAWYQQKPGKAPKLLIYAADRLQSGVPSRFSGSGSGTDFTLTISSLQPEDFATYYCQQYHTYPLTFGGGTKVEIK | 31 nM | 16 nM | 15 nM | 2 nM | 1.3 nM | 1.3 nM | 5.7 nM | 53% | 82% | 95% | 69% | 89% | 98% | 72% | 51 nM | 41% | –

Reference: US20200207859A1 (priority 2017, published 2020)
